The source of these data is patent publication US20200087373A1 (UNIVERSITY OF COPENHAGEN, published 2020).

Test [1] has as its target T1, human GIP receptor (human, UniProt P48546 22-466).
T1 construct: whole, on cells; also called hGIPR
T1 sequence (looked up): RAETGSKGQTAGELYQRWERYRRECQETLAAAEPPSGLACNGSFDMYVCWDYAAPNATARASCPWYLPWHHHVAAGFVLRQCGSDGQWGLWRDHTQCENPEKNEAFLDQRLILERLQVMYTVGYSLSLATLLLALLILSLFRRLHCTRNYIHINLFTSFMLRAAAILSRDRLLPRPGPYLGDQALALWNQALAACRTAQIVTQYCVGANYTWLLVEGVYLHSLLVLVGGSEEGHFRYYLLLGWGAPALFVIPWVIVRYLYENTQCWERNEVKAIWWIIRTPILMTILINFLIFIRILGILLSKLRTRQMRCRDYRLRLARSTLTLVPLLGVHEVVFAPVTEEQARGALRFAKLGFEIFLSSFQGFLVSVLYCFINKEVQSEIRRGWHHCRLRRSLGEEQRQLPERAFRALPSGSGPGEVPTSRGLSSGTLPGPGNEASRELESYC
The test can be described thus: 125I-hGIP competition binding, COS-7/hGIPR, 2% HSA.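 Further: nonspecific binding defined as radioligand binding to untransfected cells.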
Method: (§1) After incubation, the cells were washed twice in ice-cold binding buffer (+/−2% HSA) and lysed using 200 mM NaOH with 1% SDS for 30 min. Nonspecific binding was determined as the binding of radioactive ligand to untransfected cells.

In test [2] the target is T1, human GIP receptor. The test can be described thus: cell-based or functional assay.
Test [3] has as its target T1, human GIP receptor. The test can be described thus: IC50 with 2% HSA over IC50 with 0.1% casein, 125I-hGIP competition, COS-7/hGIPR.
Method: as §1
Test [4] deals with T1, human GIP receptor. The test can be described thus: 125I-hGIP competition binding, COS-7/hGIPR, 0.1% casein.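 Further: nonspecific binding defined as radioligand binding measured on untransfected cells.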
Method: as §1
Test [5] has as its target T1, human GIP receptor. The test can be described thus: 125I-hGIP competition binding, COS-7 cells expressing hGIPR.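 Further: nonspecific binding taken as radioligand bound by untransfected cells, binding buffer with or without 2% HSA.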
Method: as §1

Ends that are not written are not given here. * marks the point of attachment. C16 diacid = O=C(O)CCCCCCCCCCCCCCC(=O)*

B1: AT175 [hGIP(5-30)NH2[A13K]-C16diacid/13] (peptide)
peptide: TFISDYSIK(C16 diacid)MDKIHQQDFVNWLLAQK-NH2
modifications: N-terminus assumed
SMILES: CC[C@H](C)[C@H](NC(=O)[C@H](CCCCN)NC(=O)[C@H](CC(=O)O)NC(=O)[C@H](CCSC)NC(=O)[C@H](CCCCNC(=O)CCCCCCCCCCCCCCC(=O)O)NC(=O)[C@@H](NC(=O)[C@H](CO)NC(=O)[C@H](Cc1ccc(O)cc1)NC(=O)[C@H](CC(=O)O)NC(=O)[C@H](CO)NC(=O)[C@@H](NC(=O)[C@H](Cc1ccccc1)NC(=O)[C@@H](N)[C@@H](C)O)[C@@H](C)CC)[C@@H](C)CC)C(=O)N[C@@H](Cc1c[nH]cn1)C(=O)N[C@@H](CCC(N)=O)C(=O)N[C@@H](CCC(N)=O)C(=O)N[C@@H](CC(=O)O)C(=O)N[C@@H](Cc1ccccc1)C(=O)N[C@H](C(=O)N[C@@H](CC(N)=O)C(=O)N[C@@H](Cc1c[nH]c2ccccc12)C(=O)N[C@@H](CC(C)C)C(=O)N[C@@H](CC(C)C)C(=O)N[C@@H](C)C(=O)N[C@@H](CCC(N)=O)C(=O)N[C@@H](CCCCN)C(N)=O)C(C)C
As to B1, in the test with human GIP receptor [1], the 50% inhibitory concentration (IC50) came out at 562 nM and the logIC50 was -6.3 log M. Also, in the test with human GIP receptor [2], the “cAMP agonism, Emax” value came to 0; the “cAMP antagonism” value came to 17 nM; the “cAMP antagonism, log” value is -7.8 log M. In addition, the “Fold change HSA (2%)/Casein (0.1%)” value in the test with human GIP receptor [3] was 7.8 fold. Moreover, in the test with human GIP receptor [4], the 50% inhibitory concentration (IC50) amounted to 72.4 nM and the logIC50 is -7.1 log M. Moreover, in the test with human GIP receptor [5], the IC50 was found to be 73 nM and the “log IC50” value is -7.1 log M.

B2: AT176 [hGIP(5-30)NH2[M14K]-C16diacid/14] (peptide)
peptide: TFISDYSIAK(C16 diacid)DKIHQQDFVNWLLAQK-NH2
modifications: N-terminus assumed
SMILES: CC[C@H](C)[C@H](NC(=O)[C@H](CO)NC(=O)[C@H](Cc1ccc(O)cc1)NC(=O)[C@H](CC(=O)O)NC(=O)[C@H](CO)NC(=O)[C@@H](NC(=O)[C@H](Cc1ccccc1)NC(=O)[C@@H](N)[C@@H](C)O)[C@@H](C)CC)C(=O)N[C@@H](C)C(=O)N[C@@H](CCCCNC(=O)CCCCCCCCCCCCCCC(=O)O)C(=O)N[C@@H](CC(=O)O)C(=O)N[C@@H](CCCCN)C(=O)N[C@H](C(=O)N[C@@H](Cc1c[nH]cn1)C(=O)N[C@@H](CCC(N)=O)C(=O)N[C@@H](CCC(N)=O)C(=O)N[C@@H](CC(=O)O)C(=O)N[C@@H](Cc1ccccc1)C(=O)N[C@H](C(=O)N[C@@H](CC(N)=O)C(=O)N[C@@H](Cc1c[nH]c2ccccc12)C(=O)N[C@@H](CC(C)C)C(=O)N[C@@H](CC(C)C)C(=O)N[C@@H](C)C(=O)N[C@@H](CCC(N)=O)C(=O)N[C@@H](CCCCN)C(N)=O)C(C)C)[C@@H](C)CC
B2: in the test with human GIP receptor [1], the 50% inhibitory concentration (IC50) came to 562 nM and the logIC50 is -6.3 log M. In the test with human GIP receptor [2], the “cAMP agonism” value is 121 nM; the “cAMP agonism, EC50 (log)” value is -7 log M; the “cAMP agonism, Emax” value stood at 12; the “cAMP antagonism” value is 121 nM. Further, the “cAMP antagonism, log” value in the test with human GIP receptor [2] is -6.9 log M. Further, the “Fold change HSA (2%)/Casein (0.1%)” value with human GIP receptor [3] worked out at 4.9 fold. Also, in the test with human GIP receptor [4], the IC50 was 115 nM and the logIC50 was -6.9 log M. Moreover, in the test with human GIP receptor [5], the IC50 turned out to be 114 nM and the “log IC50” value was -6.9 log M.

What is called IC50 is the midpoint of a concentration-inhibition curve.
